# Target: T1, α and γ ENaC (Rattus norvegicus, UniProt P37089+P37090+P37091)
# T1 construct: expressed in transfected cells; host or cells: Xenopus oocytes (cRNA injection; with or without V5-SPLUNC1 and CAP2)
# T1 sequence (P37089 1-698): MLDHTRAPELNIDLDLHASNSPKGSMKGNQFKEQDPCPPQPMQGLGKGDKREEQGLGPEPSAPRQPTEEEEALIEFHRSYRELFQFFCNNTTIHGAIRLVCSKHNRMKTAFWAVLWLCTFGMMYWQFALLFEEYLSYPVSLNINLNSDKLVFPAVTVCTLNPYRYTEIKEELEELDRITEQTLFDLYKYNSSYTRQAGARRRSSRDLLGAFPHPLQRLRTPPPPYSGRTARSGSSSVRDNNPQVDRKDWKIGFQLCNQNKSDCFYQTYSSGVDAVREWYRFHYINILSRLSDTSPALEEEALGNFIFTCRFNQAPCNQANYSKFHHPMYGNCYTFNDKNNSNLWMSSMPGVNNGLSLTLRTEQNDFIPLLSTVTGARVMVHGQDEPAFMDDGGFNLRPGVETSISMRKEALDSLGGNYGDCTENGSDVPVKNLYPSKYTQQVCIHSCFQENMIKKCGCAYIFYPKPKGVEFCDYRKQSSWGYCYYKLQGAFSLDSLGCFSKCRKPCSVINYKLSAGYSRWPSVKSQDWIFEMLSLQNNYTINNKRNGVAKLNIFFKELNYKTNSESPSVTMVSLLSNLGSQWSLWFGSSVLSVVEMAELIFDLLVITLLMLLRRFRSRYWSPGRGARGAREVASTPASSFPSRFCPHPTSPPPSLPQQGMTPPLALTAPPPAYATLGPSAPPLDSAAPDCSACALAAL
# T1 sequence (P37090 1-638): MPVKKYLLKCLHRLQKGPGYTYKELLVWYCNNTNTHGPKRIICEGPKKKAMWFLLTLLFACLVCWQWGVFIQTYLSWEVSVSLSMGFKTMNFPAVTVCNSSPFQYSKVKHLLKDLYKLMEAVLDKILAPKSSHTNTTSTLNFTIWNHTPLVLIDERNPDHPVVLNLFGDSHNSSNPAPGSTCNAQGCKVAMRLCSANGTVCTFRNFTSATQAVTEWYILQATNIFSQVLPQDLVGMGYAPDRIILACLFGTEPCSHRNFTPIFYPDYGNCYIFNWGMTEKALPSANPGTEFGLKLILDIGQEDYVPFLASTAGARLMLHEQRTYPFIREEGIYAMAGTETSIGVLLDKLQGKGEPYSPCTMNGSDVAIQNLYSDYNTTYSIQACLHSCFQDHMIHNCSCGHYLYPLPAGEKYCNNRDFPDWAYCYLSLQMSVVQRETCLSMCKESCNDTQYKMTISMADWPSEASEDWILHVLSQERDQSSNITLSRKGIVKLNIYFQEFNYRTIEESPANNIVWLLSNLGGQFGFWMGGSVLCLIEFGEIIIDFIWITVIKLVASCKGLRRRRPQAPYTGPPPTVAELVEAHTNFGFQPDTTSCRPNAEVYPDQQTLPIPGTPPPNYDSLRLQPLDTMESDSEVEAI
# T1 sequence (P37091 1-650): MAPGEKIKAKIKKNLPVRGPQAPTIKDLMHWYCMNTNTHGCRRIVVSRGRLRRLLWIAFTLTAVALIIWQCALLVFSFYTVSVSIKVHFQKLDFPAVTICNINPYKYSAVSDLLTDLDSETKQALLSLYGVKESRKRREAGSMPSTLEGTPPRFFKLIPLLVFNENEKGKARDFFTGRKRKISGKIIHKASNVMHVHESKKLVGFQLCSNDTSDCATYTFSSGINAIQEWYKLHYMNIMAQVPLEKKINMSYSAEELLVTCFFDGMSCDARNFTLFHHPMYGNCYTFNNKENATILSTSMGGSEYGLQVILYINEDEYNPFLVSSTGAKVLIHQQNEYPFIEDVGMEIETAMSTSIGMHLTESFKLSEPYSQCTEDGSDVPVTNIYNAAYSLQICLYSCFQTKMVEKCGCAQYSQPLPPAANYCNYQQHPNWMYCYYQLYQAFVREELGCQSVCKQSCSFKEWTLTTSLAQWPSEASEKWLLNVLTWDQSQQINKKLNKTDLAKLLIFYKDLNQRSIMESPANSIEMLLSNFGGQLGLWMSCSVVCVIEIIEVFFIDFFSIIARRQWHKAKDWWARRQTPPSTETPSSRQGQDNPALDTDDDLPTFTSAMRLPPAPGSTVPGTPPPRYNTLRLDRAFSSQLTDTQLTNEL
# Assay: Western blot of ENaC cleavage by CAP2 in Xenopus oocytes
# Type: cell-based
# Details: αβγENaC, CAP2 and SPLUNC1 co-expressed in oocytes
# Method: Xenopus oocytes were injected with either HA-N-Terminus or V5-C-Terminus (HA-NT/V5-CT) tagged subunits in combination with wild type (WT) untagged rat αβγENaC subunits (0.3 ng cRNA each) with or without V5-tagged SPLUNC1 and CAP2 (1 ng cRNA each). After 24 h, 40 eggs per experimental condition were lysed with buffer containing (in mM): 20 Tris, 50 NaCl, 50 NaF, 10 β-glycerophosphate, 5 Na4P2O7 pyrophosphate, 1 EDTA, pH 7.5 and protease inhibitors (complete, Roche), aprotinin (Sigma). Cell lysates were prepared by passing the eggs through a 27G1/2 needle twice and by centrifugation at 3,600 rpm for 10 minutes at 4° C. […]
# Proteolytic cleavage of α and γ subunits is required for ENaC activation (Mueller et al., J. Biol. Chem. 282:33475 (2007); Adebamiro et al., J. Gen. Physiol. 130:611 (2007)) and since CAP2 is highly expressed in human bronchial epithelial cultures (Tarran et al., J. Gen. Physiol. 127:591 (2006)), we tested whether SPLUNC1 could alter α and γ ENaC cleavage by CAP2. Due to the relative scarcity of purified rSPLUNC1, we elected to co-express SPLUNC1 and ENaC rather than use rSPLUNC1 for subsequent oocyte studies since SPLUNC1 is secreted at sufficient quantities from oocytes to inhibit ENaC (FIG. 5). When αβγENaC and CAP2 were co-expressed in oocytes, both full-length ENaC subunits and cleaved α and γ fragments were detected with a V5 antibody (FIG. 7A, 7B). […]
molecule,measurement,value
"SPLUNC1: human SPLUNC1 (SEQ ID NO:1), 256 amino acid secreted PLUNC family protein; rSPLUNC1 is the purified V5/6His-tagged recombinant form (protein, listed as Homo sapiens, V5/6His tag in recombinant form, rSPLUNC1 is the purified V5/6His-tagged recombinant form) MFQTGGLIVFYGLLAQTMAQFGGLPVPLDQTLPLNVNPALPLSPTGLAGSLTNALSNGLLSGGLLGILENLPLLDILKPGGGTSGGLLGGLLGKVTSVIPGLNNIIDIKVTDPQLLELGLVQSPDGHRLYVTIPLGIKLQVNTPLVGASLLRLAVKLDITAEILAVRDKQERIHLVLGDCTHSPGSLQISLLDGLGPLPIQGLLDSLTGILNKVLPELVQGNVCPLVNEVLRGLDITLVHDIVNMLIHGLQFVIKV",α and γ ENaC cleavage by CAP2,only full-length α and γ ENaC subunits could be observed
